To fix the notation:
B1: soluble truncated variant of the Wild-Type ILT-2 molecule (extracellular domains D1 and D2) (receptor)
chain: MGHLPKPTLWAEPGSVITQGSPVTLRCQGGQETQEYRLYREKKTAPWITRIPQELVKKGQFPIPSITWEHAGRYRCYYGSDTAGRSESSDPLELVVTGAYIKPTLSAQPSPVVNSGGNVTLQCDSQVAFDGFILCKEGEDEHPQCLNSQPHARGSSRAIFSVGPVSPSRRWWYRCYAYDSNSPYEWSLPSDLLELLVL
notes: also called soluble wild-type ILT-2 polypeptide; soluble two domain form of the wild-type ILT-2
B2: SEQ ID NO 76 (receptor)
chain: MGHLPKPTLWAEPGSVITMDQPVTLRCQGGQETQQYRLYREKKTAPWITRIPQELVKKGQFPIPSITWEHAGRYRCYYGSDTRQWSASSDPLELVVTGVYIKPTLSAQPSPVVNSGGNVTLQCDSQVAFDGFILCKEGEDDHPQCLNSQPHARGSSRAIFSVGPVSPSRRWRYRCYAYDSNSPYEWSLPSDLLELDVDG
B3: SEQ ID NO 71 (receptor)
chain: MHLPKPTLWAEPGSVITMDQPVTLRCQGGQETQEYRLYREKKTAPWITRIPQELVKKGQFPIPSITWEHAGRYRCYYGTQTAGRSESSDPLELVVTGVYIKPTLSAQPSPVVNSGGNVTLQCDSQVAFDGFILCKEGEDEHPQCLNSQPHARGSSRAIFSVGPVSPSRRWWYRCYAYDSNSPYEWSLPSDLLELDVDG
B4: SEQ ID NO 80 (receptor)
chain: B3 chain with T79S, Q80D, A82S, G83Q, R84W, E86A, C134S, C144S
B5: SEQ ID NO 78 (receptor)
chain: B3 chain with T79S, Q80D, A82S, G83Q, R84W, E86A, I158E
B6: SEQ ID NO 73 (receptor)
chain: B3 chain with Y76V, Y77I, G78Q, T79R, Q80G
B7: SEQ ID NO 75 (receptor)
chain: B3 chain with A82S, G83Q, R84W, E86A
B8: SEQ ID NO 72 (receptor)
chain: B3 chain with Y76M, Y77Q, G78Y, Q80L
B9: SEQ ID NO 79 (receptor)
chain: B3 chain with T79S, Q80D, A82S, G83Q, R84W, E86A, L187D
B10: SEQ ID NO 77 (receptor)
chain: B3 chain with T79S, Q80D, A82S, G83Q, R84W, E86A, L145D
B11: SEQ ID NO 74 (receptor)
chain: B3 chain with T79G, T81E, A82G, G83A

Numbering of substitutions follows the chain as printed.

The first assay concerns the target T1, HLA-A*0201 loaded with the Carcinoembryonic antigen (CEA)-derived … peptide (biotinylated on the C-terminal biotinylation tag). Briefly: SPR (Biacore), method of Example 4.
Regarding B1, the koff stood at 2.4 s⁻¹.

For a further assay, the target named is T1, HLA-A*0201 loaded with the …. Briefly: SPR (Biacore 3000), biotinylated pMHC immobilised on streptavidin.
B1 showed a Kd of around 6 µM.

The target is the same in another assay. Briefly: SPR (Biacore), Example 4.
B2 yielded a Kd of at most 1000 nM and a koff of at most 2 s⁻¹.
The molecule B3 showed a dissociation constant Kd of at most 1000 nM and a koff of at most 2 s⁻¹.
The like results for B4 were, in that order, at most 1000 nM and at most 2 s⁻¹.
As to B5, the Kd was at most 1000 nM and the off-rate (koff) was at most 2 s⁻¹.
In turn, B6 showed a Kd of at most 1000 nM and a koff of at most 2 s⁻¹.
B7: the dissociation constant (Kd) is at most 1000 nM and the koff is at most 2 s⁻¹.
The like results for B8 were, in that order, at most 1000 nM and at most 2 s⁻¹.
The like results for B9 were, in that order, at most 1000 nM and at most 2 s⁻¹.
B10 returned a dissociation constant (Kd) of at most 1000 nM and an off-rate constant (koff) of at most 2 s⁻¹.
The like results for B11 were, in that order, at most 1000 nM and at most 2 s⁻¹.

Source of the values: patent US20090208447A1 (MEDIGENE, published 2009).
